In IntAct's records for PubMed 15504911:

B1: GRIP domain-containing protein RUD3 (Saccharomyces cerevisiae), Q12234 (parent)
chain: MGKNKKKTGKKAKSHPHVEDVDETVNKPEEIINSVNVTVPPKMSTDPEADGIVASPDDEGKDLSEGVDKQKVNDGLTVDTINPLEDKKAGDEMKELREEIERLKLELSHKKDQETPNEDFKNELANVIKERDEFKTQYDTLLSKISSMKSIFNKMKEAQKQLEEVQEQLTEYESQNLKLKKKLEATKTENSELQSTIVTLNTELENLEKEQESTEEVFLEYESRIEALEDEKHDIIEKHSKELNTYRKEKDQLNLQVQELMIILENNKQDISDLRTERDELRQALESHEKEKAVLKNSLNDLELKIEEVDNKREEEARERDQEVKSLRSQLDTEIETHNNDTEALESMKKQLEAMKEDASMKEKYEEESKQHILQIGKLRHEAIILNEHLTKALAMLKKSSDSESVDKELISNLLISFVSIPRADPRKFEVLELLSNFLNWDEDKKQQAGLISNNESKNSSAVSRTESFVSLWTNYLEKESEKD
partner: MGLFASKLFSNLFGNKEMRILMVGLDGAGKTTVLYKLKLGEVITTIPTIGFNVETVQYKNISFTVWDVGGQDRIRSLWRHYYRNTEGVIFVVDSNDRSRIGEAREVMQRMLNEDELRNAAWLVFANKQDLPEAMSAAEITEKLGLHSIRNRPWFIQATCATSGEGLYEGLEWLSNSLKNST
B2: ADP-ribosylation factor 1 (Saccharomyces cerevisiae), P11076 (parent)
chain: B1 partner
partner: B1 chain

Variants of: B1
Settings: with arf1_yeast ARF1, P11076

| effect of a mutation on the interaction | Variant |
| --- | --- |
| decreasing interaction | MGKNKKKTGKKAKSHPHVEDVDETVNKPEEIINSVNVTVPPKMSTDPEADGIVASPDDEGKDLSEGVDKQKVNDGLTVDTINPLEDKKAGDEMKELREEIERLKLELSHKKDQETPNEDFKNELANVIKERDEFKTQYDTLLSKISSMKSIFNKMKEAQKQLEEVQEQLTEYESQNLKLKKKLEATKTENSELQSTIVTLNTELENLEKEQESTEEVFLEYESRIEALEDEKHDIIEKHSKELNTYRKEKDQLNLQVQELMIILENNKQDISDLRTERDELRQALESHEKEKAVLKNSLNDLELKIEEVDNKREEEARERDQEVKSLRSQLDTEIETHNNDTEALESMKKQLEAMKEDASMKEKYEEESKQHILQIGKLRHEAIILNEHLTKALAMLKKSSDSESVDKEAISNLLISFVSIPRADPRKFEVLELLSNFLNWDEDKKQQAGLISNNESKNSSAVSRTESFVSLWTNYLEKESEKD [L410A] |

Variants of: B2
Settings: with rud3_yeast RUD3, Q12234

| effect of a mutation on the interaction | Variant |
| --- | --- |
| decreasing interaction | MGLFASKLFSNLFGNKEMRILMVGLDGAGKTNVLYKLKLGEVITTIPTIGFNVETVQYKNISFTVWDVGGQDRIRSLWRHYYRNTEGVIFVVDSNDRSRIGEAREVMQRMLNEDELRNAAWLVFANKQDLPEAMSAAEITEKLGLHSIRNRPWFIQATCATSGEGLYEGLEWLSNSLKNST [T32N] |
